# Reference: the nanobody polyreactivity screen of Harvey et al. (2022)
# Assay: yeast display, Sf9 membrane polyspecificity reagent, FACS + sequencing; frameworks hold sequencing errors
# In short: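 Sorting gates, low and high (top ~1%), were placed on anti-HA fluorescence to track expression and on streptavidin fluorescence to track reagent binding. A clone's polyreactivity label is taken from the gate it came out of. The reagent was 10% biotinylated, detergent-solubilized Sf9 membrane, applied for 1 hour at 4 °C to galactose-induced yeast display cells.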
sequence,measurement,value
QVQLVESGGGLVQAGGSLRLSCAASGITIVLYTMGWYRQAPGKEREFVAGITRGGSTYYADSVKGRFTISRDNAKNTVYLQMNSLKPEDTSVYYCAARPRFLRASVEYDYWGQGTQVTVSS,polyreactivity (PSR sort gate),high polyreactivity
QVQLVESGGGLVQAGGSLRLSCAASGRIFRFNAMGWYRQAPGKERELVAAITGSGGTTFYADSVKGRFTLSRDNAKNTVYLQMNSLKPEDTAVYYCNTLGNWRPVYNQPRYEYWGQGTQVTVSS,polyreactivity (PSR sort gate),high polyreactivity
QVQLVESGGGLVQAGGSLRLSCAASRIIFWFYAMGWYRQAPGKERELVAAISGDGDSTYYADSVKGRFTISRDNAKNTVYLQMNSLIPEDTAVYYCAAEWDPVFATDEDDYWGQGTQVTVSS,polyreactivity (PSR sort gate),low polyreactivity
QVQLVESGGGLVQAGGSLRLSCAASGSTFHSYVMGWYREAPGIERELVAAITSRGGSTNYADSVKGRFTISRDNAKNTVYFQMNSLKPEDTAVYYCAAEWLYPLDGGYPRPMDYWGQGTQVTVSS,polyreactivity (PSR sort gate),low polyreactivity
QVQLVESGGGLVQAGGSLRLSCAASGFIFPRYAMGWSRQRPGKESELVAAISRSGGITRYADSVKGRFTISRDNAKNTVYLQRNSLKPEDTAVYYCAAYIQGWVTAEWVRDDYWGKGTQVTVSS,polyreactivity (PSR sort gate),high polyreactivity
QVQLVESGGGLVQAGGSLRLSCAASGRIFVRYAMGWYRQAPGKERELVAAITKSGGSTYYADSVKGRFTISRDNAKNTVYLQMNSLKPEDTAVYYCNADRFYIDYTNTYDSIRDYWGQGTQVTVSS,polyreactivity (PSR sort gate),low polyreactivity
QVQLVETGGGLVQAGGILRLSCAATGSIFKAYDMGWYRKAPAKERELVAAITWSGGSTYYADSVKGRFTISRHNAKNTVYLQMNSLKPEDTAVYYCAAKLGLWAYYLYDYWGQGTQVTVSS,polyreactivity (PSR sort gate),low polyreactivity
QVQLVESGGGLVQAGGSLRLSCAASGRIFNGYTMGWYRQAPGKEREFVATISRSGGSTYYADSVKGRFTISRDNAKNTVYLQMNSLKPEDTAVYYCAKTYPAKWEYDYWGQGTQVTVSS,polyreactivity (PSR sort gate),low polyreactivity
QVQLVESVGGLVQAGGSLRLICAASGLTFEWYTMGWYRQATGNERELVAVITVSGSSTYYADSVKGRFTISRDNAKNTVYLQMNSLKPEDTAVYYCARKTYYTGDFLGREYGYWGQGTQVTVSS,polyreactivity (PSR sort gate),low polyreactivity
QVKLVESGVGLVQAGGSLRLSCGASGFIFVRYAIVWSRQAPGKERDLVAAISGSGGRTYYAYSVKGRFTISRDNAKNTVYLKMNSLKPEDTSVYYCNVKSYTYGYLPYDYWGQGTQVTVSS,polyreactivity (PSR sort gate),high polyreactivity
QVQLVESGGGLVQAGGSLRLSCAASGLIFAGYSMGWYRLAPGKERELVAAITWRGGRTYADSVKGRFTISRDNAKNTVYLQMNSLKPEDTAVYYCAVRRWGTSFVEDDYWGQGTQVTVSS,polyreactivity (PSR sort gate),low polyreactivity
QVQLVESGGGLVQAGGSLGLSCAASGRTIDYYALGWYRQAPGKERELVAAITWDGSTYYADSVKGRFTISRDNAKITVYLQMISLKPEVTAVYYCAADFYWYLDLYDFWGQGTQVTVSS,polyreactivity (PSR sort gate),high polyreactivity
QVQLVESGGGLVQAGGSLRLSCAASGSTFYRNALGWYRQAPGKERELVARIYRSGSSTSYADSVKGRFTISRDYSKNTVYLQMNSLKPVDTAVYYCATVFVRYEMYWGQGTQLTVSS,polyreactivity (PSR sort gate),high polyreactivity
QVQLVESGGGLFQAGGSLRLSCAPSGIFRYYVMGWYIQAPGKERELVAAISWGGGSTYYADSVKGRFTISRDNPKNTVYLQMNSLKPEDTAVYYCAARDLRKLYSRYPYYYWGQGTQVTVSS,polyreactivity (PSR sort gate),high polyreactivity
QVQLVESGGGLVQAGGSLRLSCAASGSTFANYAMGWYRQAPGKERELVAGISWRGGRTYYADSVKGRFTISRDNAKNTVYLQMNSLKPEDTAVYYCAVVHQTFTGDYWGQGTQVTVSS,polyreactivity (PSR sort gate),high polyreactivity
QVQLVESGGGLVQAGGSLRLSCAASGRTFAKYAMGWYRQAPGKEREFVAAITRGDTTNYADSVKGRFTISRDNAKNTVYLQMNSLKPEDTAVYYCNADSLYYDYQTVDVQALDYWGQGTQVTVSS,polyreactivity (PSR sort gate),low polyreactivity
QVQLVESGGGLVQAGGSLRLSCAASGRTFGTKTMGWYRQAPGKERELVAGISRSGGRTYYADSVKGRFTISRDNAKNTVYLQMNSLKPEDTAVYYCAAVSYYQPLRRIMDYWGQGTQVTVSS,polyreactivity (PSR sort gate),high polyreactivity
QVQLVESGGGLVQAGGSLRLTCAASGRTFSVNAMGWYRQAPGKEREFVAAIRTSGGSTSYADSVKVRFTISRDNAKYTVFLQMSSLKPEDTAVYYCAADYGGTSYVRGTVGRKYDYWGQGTQVTVSS,polyreactivity (PSR sort gate),high polyreactivity
QVQLVESGGCLVQAGGSLRLSCAASGSIFDSNAMGWYRQAPGKERELVAAITWSGGRTYYADSVKGRFTISLDNAKNTVYLQMNSLKPEDTAVYYCAARKYTLFWPYDYWGQGTQVTVSS,polyreactivity (PSR sort gate),high polyreactivity
QVQLVESGGGLVQAGGSLRLSCAASGSIFSDYAKGWYRQAPVKERELVAVITSGGRTNYADSLKGRFTISRDNAKNTVYLQMNSLKPEDTAVFYWNAYVHSRRVEFNYWGQGTQVTVSS,polyreactivity (PSR sort gate),high polyreactivity
QVQLVESGGGLVQAGGSLRLSCAASGRTFARNAMGWSRQAPGKERELVAAITRSGGSTYYADSVKGRFTISRDNAKNTVYLQMNSLKPEDTAVYYCAAVGTGSSLRYGYWGQGTQVTVSS,polyreactivity (PSR sort gate),high polyreactivity
QVQLVESGGGLVQAGCSLRLSCAASGITFYGNAMGSYRQAPGKERELVAAISRRGGSTYYADSVKGRFTSSRDNAKNSVYLQMISLKPEDTAVYYCAARYYSWSFRFDYWGQGTQLTVSS,polyreactivity (PSR sort gate),high polyreactivity
QVQLVESGGGLVQAGGSLRLSCAASGSTFIVNAMGWYRQAPGKERELVAAISRSGSDTYYADSVKGRFTISRDNAKNTVYLQMNSLKPEDTAVYYCAARWSYRSLARYNYWGQGTQVTVSS,polyreactivity (PSR sort gate),low polyreactivity
QVQLVESGGGLVQAGGSLRLSCAASGFTIWRYAMGWYRQAPGKERELVAAISRGGSTNYADSVKGRFTISRDNAKNTVYLQMNSLKPEDTAVYYCAASVQYRRLKKFYYWGQGTQVTVSS,polyreactivity (PSR sort gate),high polyreactivity
QVQHVESGGGLVQAGGSLRLSCAASGLTFYSYAMGWYRQAPGKERELVATISGGGSTTYADSVKGRFTISRDNAKNTVYLQMNSLKPEDTAVYYCAARSNHYRGWPVPLGYWGQGTQVTVSS,polyreactivity (PSR sort gate),high polyreactivity
QVQLVESGGGLVQAGGSLRLSCAASGRTFVHNAMGWYRQAPGKERELVAVITSGARTTYADSVKGRFTISRDNAKNTVYLQMNSLKPEDTAVYYCAAGTFSVIFSYKYRHYYYWGQGTQVTVSS,polyreactivity (PSR sort gate),low polyreactivity
QVQLQESGGGMVQAGGSLRLSRATSGTISATKGMCRYRQAPGKERELVAGINYGGNTNYADNVKGRFTISRDNAKNTVYLQMNSLKPGDTAVYYCAAEPRGVTDLGYWGQGTQVTVSS,polyreactivity (PSR sort gate),low polyreactivity
QVQLVESGGGLVQAGGSLRLSCPASGSIIYYAMGWSRQPPGKEREFVAAITKSGGSTYYADSVKGRFTFSRDNAKNTVYLQMNSLKPEDTAVYYCSARGTWAGFYYWGQGTQVTVSS,polyreactivity (PSR sort gate),high polyreactivity
QVQLGESGGGLVQAGGSLRLSCAASGRTFVDNHMGWYRQAPGKERELVAAITWRGGGTYYADSVKGRFTISRYNAKNTVYLQMNSLKPEDTAVYYSAADQRPPFVEPRGLSTGEFDYWGQGTQVTVSS,polyreactivity (PSR sort gate),low polyreactivity
QVQLVESGGGLVQAGGSLRLSCAASGSIFWQNGMGWYRQAPGKEREFVAAITRTGGSTYYADSVKGRFTISRDNAKNTVYLQMNSLKPEDTAVYYCAARGGYRYTRYDYWGQGTQVTVSS,polyreactivity (PSR sort gate),high polyreactivity
QVQLVESGGGLVQAGGSLRLSCAASGFTFARYAMGWYIQAPGKEREFVAAISLSTTSTYYADSVKGRFTISRDNAKNTVYLQMNSLKPEDTAVYYCATDIVGPHVDYWGQGTQVTVSS,polyreactivity (PSR sort gate),low polyreactivity
QVQLVESGGGLVQAGGSLRLICAASGRTFYGYAMGWYRQAPGKERELVAAISTGGGRTYYADSVKGRFTISRDNAKNTVYLQMNSLKPEDTAVYYCAARRAYPHYRVDYWGPGTQVTVSS,polyreactivity (PSR sort gate),high polyreactivity
QVQLVESGGGLVQSGGSLRLSCAASGRISYYYAMGWYRQAPGKERELVARISKSGGSTYYADSVKGRFTISRDNAKNTVYLQMNSLKPVVTAVYFCAARWKTGYNYWGEGTQVTVSS,polyreactivity (PSR sort gate),high polyreactivity
QVQLVESGGGLVQAGGSLRLICAASGSIFGLYAMGWYRPAPGKEREFVASITYSGGSTYYADSVKGRFTISRDNAKNTVYLQMNSLKPEDTAVYYCAAESYWGYDYWGQGTQVTVSS,polyreactivity (PSR sort gate),high polyreactivity
QVQLVESGGGIVQAGGSLRLSCAASGRTFWRNTMGWYRQAPGKETELVAAINKPGGSTYYADSVKGRFTISRDNAKNTVYLQMNSLKPEDTAVYYCNALTYQGRHSARYDYWGQGTQVTVSS,polyreactivity (PSR sort gate),high polyreactivity
QVQLVESGGGLVQAGGSLRLSCAASGITFWPYALGWYRPAPGKERELVAAIRASVGRTYYADSVKGRFTISRDNAKNTVYLQMNSLKPEDTAVYYCNAYGRYGKFRVEYDYWGQGTQVTVSS,polyreactivity (PSR sort gate),low polyreactivity
QVQLVESGGGLVQAGGSLRLSCAASGSTFPVNAMGWYRQAPGKERELVAAISSRGSSTYYADSVKGRFTISRDNAKNTVYLQMNSLKPVDTAVYYCAAPQRYPRFYYWGQGTQVTVSS,polyreactivity (PSR sort gate),high polyreactivity
QVQLVESGGGLVQAGGSLRLSCAASGNILEYNAMGWYRQAPGKERELVAAISRGGITNYADSVKGRFTISRDNAKNTVYLQMNSLKPEDTAVYYCATRWIGYTSQWDHFEYDYWGQGTQVTVSS,polyreactivity (PSR sort gate),low polyreactivity
QVQLVESGGGLVQAGGSLRFSCAASGGIFWHYTMGWYRQAHGKERELVAAITRRGGSTYYADSVKGRFTISRDNAKNTVYLQINSLKPEDTAVYYCAADFLPQSYNWYDYWGQGTQVTVAS,polyreactivity (PSR sort gate),low polyreactivity
QVKLVESGAGLVQAGGSLRLSCAASALSFYYYAMGWYRQAPGKERELVASITGGDSTNYADSVKGRFTISRDNAKNTVYLQMNSLKPEETAVYYCADEFYVSSYGYRTYDYYYWGQGTQVTVSS,polyreactivity (PSR sort gate),low polyreactivity
QVQHVESGGGLVQAGGSLRLSCAASGFIFDRYAMGWYRQAPGKERELVAAISSGGSTYYADSVKGRFTISRDNAKNTVYLQMNSLKPEDTAVYYCAAESWLNFIYEYDYWGQGTQVTVSS,polyreactivity (PSR sort gate),low polyreactivity
QVQLVESGGGLVKAGGSLRLSCAASGFIFGYNDMGGYRQAPGKERELVAAITSRGDRTYYADSVKGRFTISRDNAKNTVYLQMNSLKPEDTAVYYCAAESQAYSLYWGQGTQLTVSS,polyreactivity (PSR sort gate),high polyreactivity
QVQLVESGGGLVQAGGSLRLSCAASGRTFRRNAMGWYRQAPGKEWELVAAISKSGGRTYYADSVKGRFTISRDNAKNTVYLQMNSLKPEDTAVYYCAARGYGYIPDNGDYDYWGQGTQVTVSS,polyreactivity (PSR sort gate),high polyreactivity
